experiment: soluble on expression in E. coli; label from the status in PepcDB or PDB records

Sequence | soluble on expression in E. coli
MSLKVFVTGATGFIGASIARELLKDGCHVRVLARPGSDRRNLDGLDVEVCEGDLCSPESLDRGVKGCEVLYHAAADYRLWTRNPAAMYAANVEGTRHVLDAALRHGVSRVVYTSSVGTLGNPGDGTPGTEATPVTFADMVGDYKKSKFLAEREAETFLARGLPLVIVNPSTPVGPHDVKPTPTGKIIVDFLNRAMPAYLDTGLNIIDVEDCAQGHILAAQHGRIGEKYILGHENLTLRQIFSLLETVTGLAAPKVRLPYLPILAAAYANEALSRITGREPLIPLAGVQMARKFMYFDSSKAVKELGLPQRPAVEALGRAVEWFRANGYVREGHHHHHH | soluble
MGSDKIHHHHHHMENYKERKLIAIDLDGTTLQSDGRSISRYTKYIFKQVESLGHIICITTGRPFRMSLDVYRELELTSPVINFNGALISMPNDKNWEHTKSYYIDRSFIFDLLRHQQNFNLHFFAVEYRRKFFLNTFRNVEPKLFGVEKFQPYNRLRADRVTENPHAVLLSTRQKDKLALAEEMKRHYNGKIDVGVWGGPNGILEVVPKGISKASGLNHLLKVLDIPLENLIAFGDEHNDIEMFKLAPNAYAMKNASARLTPYASEILPWTNDEDGVARQLEKLFLTPNK | not soluble
MARNAEKAMTALARFRQAQLEEGKVKERRPFLASECTELPKAEKWRRQIIGEISKKVAQIQNAGLGEFRIRDLNDEINKLLREKGHWEVRIKELGGPDYGKVGPKMLDHEGKEVPGNRGYKYFGAAKDLPGVRELFEKEPLPPPRKTRAELMKAIDFEYYGYLDEDDGVIVPLEQEYEKKLRAELVEKWKAEREARLARGEKEEEEEEEEEINIYAVTEEESDEEGSQEKGGDDSQQKFIAHVPVPSQQEIEEALVRRKKMELLQKYASETLQAQSEEARRLLGY | soluble
MTPQELNAECHACDKTPPAANTYKGWSGFVGLAAQLNQAWRVGYDITSGYRVPNASEVYFTYNHGSGNWLPNPNLKAERSTTHTLSLQGRSEKGMLDANLYQSNYRNFLSEEQKLTTSGTPGCTEENAYYGICSDPYKEKLDWQMKNIDKARIRGIELTGRLNVDKVASFVPEGWKLFGSLGYAKSKLSGDNSLLSTQPLKVIAGIDYESPSEKWGVFSRLTYLGAKKVKDAQYTVYENKGWGTPLQKKVKDYPWLNKSAYVFDMYGFYKPAKNLTLRAGVYNLFNRKYTTWDSLRGLYSYSTTNAVDRDGKGLDRYRAPGRNYAVSLEWKF | not soluble
MAGDPMVIIHMIPKKIHYCWFGKGKHSKEMKKCIKSWKKYCPDYEIIEWNESNFDISAHPFVKAAYEAKAWAFVSDYARLKIIYDYGGVYLDTDVELIRNIDFLLQNDAYLGVEAQDWLCNTGLGFGAKKHNSIIAEMLQIYNEIEFDNSKKSTIACPYLNTAVVEKIGYKKQDRIQQLDKITIYPPKYFDPFPSGGSVSILICDETVSIHHYSASWGSWKNKLKRRIARFIGPKLTFKLKKLKIFLITRKLEHHHHHH | soluble
MGSDKIHHHHHHMDILLANPRGFCAGVNRAIQIVDRALELFGAPIYVRHEVVHNRHVVEDLRARGAIFVEELDEVPDAATVIFSAHGVPIAVREHAAARGLSVFDATCPLVTKVHMEVKKYSRDGMEMVLIGHAGHPEVEGTMGQVEEGMMYLVSNVSDVATLAPRNPDKLAYITQTTLSMDDTAEVIVALRSRFPLIEGPKKDDICYATQNRQDAVKSLAPDVDILLVVGAPNSSNSSRLAELGTRLGTQTHLIEDAQQLRREWFEGVGKIGISAGASAPESLVQEIMDTLRGWGARVPQEMPGVEEKVTFSLPLALIQAQTRREGA | not soluble
MSLSLALQYFKALSDETRLRLIHVLNRHELSVNELVSILEMGQSRVSRHLKILTGAGLLTSRRDGLWVFYSAAAEGDGRAFLDAVTPFVTTDMVLQADLDMAQKIIEERALKTRQFFNAIAEDWDELNREVLGGFDLAGAVAEAMPQCETAVDLGCGTGSVIERMLQRSQQVIGVDGSPRMLELARRRFVEGAERVSLRIGELDHLPLRDGEADFASINMVLHHLSDPGVALGEIRRVLRLGGQLMVTDFDRHDNERMRSDYGDRWLGFEGVQLEGLLREAGFTVRECRRQGVAKGLALHLMLAEKTQEGHHHHHH | soluble
MGSDKIHHHHHHMPPLNALRAFDAVARHGSFAGAAAELHVTHWAVGKQIRLLEDWFGLPLFDRRPRGVVLTDEGAVLLNDVSHAFEHLGTAVVRLRHNTLAHRISGVVRVNVPMSFAFCWLLPRLADFHSRYPDIDVRVSTTSRKLRYVADAFDIGVRSGPEQGAGVVSRPLMPDLRVPACNPALLRQHPIQSVADLRHHTLLHSATTRSAWSHWLREAGAADLRAARHVEFDHVNLQLGAAIEGLGVALASLPLIGRDLAEGRLVCPIASPVWRADDYTLVTNADRADDAAVSAFEQWMESMASQEAG | not soluble
MGSDKIHHHHHHAATRLKRRKFPTINEEFYYNQLENGMTVFLIPKESFKETLAVMSSRFGSIDTNFTVNGKKKSYLAGIAHLLEHQLFEMNKQKDAAYEFTKLGAESNAYTTFDKTIYYFSTADNIKKNLDLLQEFTSQINFTDMSIEKEKKIITQEFNMYQDDSDDYLYQVILSKLYPQTSLAEDITGNRDSIDKLTKNNLEENFHYFYQPENLTLLVAGDFDVKRVYKDIVTTQRQLPDRPKFEIKRSPLKLLPITPTSSMQMDISISKLAVGFRFNFIKKKRKSLIKERLLLKLFFLLLFGWTSEHYQQWYEDRKIDDSFELKIEVSTSYQFVVILLDTKEPIAMSNKIGQTIKKFKTDTNLSASHLQTVKKELYGDFIRSLDSLEALSSQFIDNLWGEETYFDFPTVLQNIEIKDVLEFGEKITKEMQLTDFTLFPK | not soluble
MSTPLSRVITNEIFRVPARRKPKPAVKPSDIPTLKDYTARLVDQKWLRLAARRKSA | not soluble
AHHHHHHGSYLSIGTLLHRPLSSNLCIAYEIATPAIYLSPGYFTTFPATYDEILLIVSTSLAFPYVWV | soluble
MKVMIEKILLVQTLKRLPRMGWLIKGVQEPESIADHSFGVAFITLVLADVLEKRGKRIDVEKALKMAIVHDLAEAIITDIPLSAQEFVDKDKAEALVFKKVFPEFYELYREYQECSSPEAQLVRIADKLDMILQAYQYELSGNKNLDEFWEAIEEIKRLELSKYLEDILNSVGRLKA | soluble
MGSDKIHHHHHHMLLGSFQSVLEARNRDEFRGEVVRFAKRLGFETVSAITVVDHPVGDTEFVAIDNAPDAYKDAIEDPKAGQLDPVMQHCKRQSVPIIWDQSTYVSAGQGSMWEAQARFGFRTGICLALHMPEGRHFVIGVDRDQALPKDRGEVTRLVADLQLFAVHAQDTAMRVLVPERLQLERPKLTPRELDSLRWTMDGKTAWEVGSIMGISERTAVLHINNAMHKLACTNKHQAVLKALRLGLLR | not soluble
GMLFSIQTCPCQINPALNAVSTPLLYQDCCQPYHDGLYNQEVEDSDAIRADTAEHLMRTRYSAFVLVKPEYIVKTTLPAQQDLLDIKAIENWAKETDWAGLEVVAHTPKLSKRHAQVEFKAYFKTPDGLQAHHELSTFVKIKNKANSDASWYFLDPTVSMSVTQKQPCICGSGEKFKRCCGMYI | soluble
MSLEWCKNRLEITGRSVFVDIMQQWVTGEEVPLYRHAIQQSIRLFLAGCAGILKPVKCMEYPPFPRLVSHGTGSAVASNLAFQHWLDLLLKDAVLDGDTIRQIDRIYLQSGIASVKWETIPEGARQIITQLMARQYPDWFGVASWSSHINGADCWTKLGVMQEHACNCDMLMIIPTRLAIELNGNSQLLTGVSTTHDLYSHLYGMAWPSGQNIIWQRDRINSLRLDFDSPSYPPSAELMGELSAVFDCEIRHWYQEPVNGIRGYDCYDRGDHVDSGEYGAGPFLPPLKVEEVTVNGQEEAAEGHHHHHH | soluble
MSSDKSIEKNTDTIASEVHEGDNHSNNLGSMEEEIKSTPSDQYEEIAIIPTEPLHSDKELNDKQQSLGHEAPTNVSREEPIGISGDEDTQITEQNVNEQRQETREPSSEIDLNEPLDVEKDVTTDVQAPNGLNIEKEYDAVKENEKVYADTKEVVSSPENREVTGKNSGGEKSSSSKFLDDESGTTTAANANDISISSEVTPERSSENDNNQIHITNEVAAGINLNENKEQKAAIEDGPVTAENLSSETARKVPPIPTQIINEKGDNSSENEVSAIPTTSSPPLPPRQNVATSTSPKLPPRGKQREQPPKTKNAVPPPLEEEMKSEKFRKNFEETKRNSYHHVPLTGSKTAQLESTAEINLIASRYRKTSHHLNKEGEETRESLQEGQSFLKSTFTSFLENLSEYNEVENVNEEDREMFKIDWSFWTQVVNDYATVASNEPENLEAHVTNGIPPQIRGIIWQLMANSKSREMEDIYETLLDTECLHEATIRRDLRRTKFVAEDKMESLYKVIKVYSVYDPDVGYTQGMGFIAAPLLINCENEAESFGLLVGLMKNYGLRELFLPGMPGLMLMLYQFDRLLEEHSPSLYNRLIREGISSTMYATQWFLTFFAYKFPLEFVLRIFDIVFVEGIEVLLKFAVNLMLKNEETLVKLRFDELLDFLKDELFNYYLMGNQDDASVVQMGLSNGNSFKGNDDGTFSYNVDLFVHDAMTGVYITPLTLRRYRGEYVEIHEKEQKKEDHYESLRIQNHQLQREAQKLEHDYSILNKENISAANELIQNRLNMEMLLDEKNDLINTITDIKSQIEEEIRKQNLPNPDASLPKADLREDLERTISRNNEVMRENGQLEERITELQAEIDELININKEQVSTASLLERDSKAKGRKGWTGFKKVFK | soluble
MGKKHKKHKSDKHLYEEYVEKPLKLVLKVGGNEVTELSTGSSGHDSSLFEDKNDHDKHKDRKRKKRKKGEKQIPGEEKGRKRRRVKEDKKKRDRDRVENEAEKDLQCHAPVRLDLPPEKPLTSSLAKQEEVEQTPLQEALNQLMRQLQRKDPSAFFSFPVTDFIAPGYSMIIKHPMDFSTMKEKIKNNDYQSIEELKDNFKLMCTNAMIYNKPETIYYKAAKKLLHSGMKILSQERIQSLKQSIDFMADLQKTRKQKDGTDTSQSGEDGGCWQREREDSGDAEAHAFKSPSKENKKKDKDMLEDKFKSNNLEREQEQLDRIVKESGGKLTRRLVNSQCEFERRKPDGTTTLGLLHPVDPIVGEPGYCPVRLGMTTGRLQSGVNTLQGFKEDKRNKVTPVLYLNYGPYSSYAPHYDSTFANISKDDSDLIYSTYGEDSDLPSDFSIHEFLATCQDYPYVMADSLLDVLTKGGHSRTLQEMEMSLPEDEGHTRTLDTAKEMEITEVEPPGRLDSSTQDRLIALKAVTNFGVPVEVFDSEEAEIFQKKLDETTRLLRELQEAQNERLSTRPPPNMICLLGPSYREMHLAEQVTNNLKELAQQVTPGDIVSTYGVRKAMGISIPSPVMENNFVDLTEDTEEPKKTDVAECGPGGS | soluble
GSSPNLRYPIADVSGGIGMSPNYRFRQSMWIGIVSYSGSGLNWRVQVNSDIFIVNDYIHICLPAFDGFSIADGGDLSLNFVTGLLPPLLTGDTEPAFHNDVVTYGAQTVAIGLSSGGTPQYMSKNLWVEQWQDGVLRLRVEGGGSITHSNSKWPAMTVSYPRSFT | soluble
MGSDKIHHHHHHMKEKVFRDPVHNYIPVEDELIYDLINSKEFQRLRRIKQLGSSSFTFHGAEHSRFSHCLGVYYLARRVTNIFDKKYSDIWNSNESLLTMTAALLHDIGHGAYSHTFERLFDTNHETITQQIILSPETEINTILRRVSPDFPDKVASVINHTYSNKQVEQLISSQIDVDRMDYLLRDSYFTGASYGEFDLTRVLRVIRPIENGIAFSRDGMHAVEDYIISRYQMYMQVYFHPASRAMEVLLQNLLKRAKYLYPKEKEFFTVTSPHLIPFFENRVTLEDYLSLDDGVMNTYFQTWMQSADKILSDLASRFINRKVFKSITFDEKDLSNLEKLRKIVKDLGFDPTYYTALHLNFDLPYDVYKPDVQNPRTQIEMLQEDGSIAELSTLSPLVHTLSGTTHGDRRFYFPKEMLIKDGLFVEAKEKFSHYIKNKHFYNLRE | not soluble
MGHHHHHHSHMILEIRTKNFIFRTKHKLDFTPIGCDAKGRIVLGYTEAELCTRGSGYQFIHAADMLYCAESHIRMIKTGESGMIVFRLLTKNNRWTWVQSNARLLYKNGRPDYIIVTQRPLTDEEGTEHLRKRNTKLPFMF | soluble
